Results from paper PMC10198859.
Starred links: 1 amine or outer side, 2 acyl side, 3 side chain; linkers in the order of their positions; H or OH if unused. No end group written: not given here. *: point of attachment. Suc = O=C(CCC(=O)[*:2])[*:1]; For = O=C*

Target: murine TLR2/TLR6 (mouse (endogenous in RAW 264.7 and P388.D1)) (UniProt Q9QUN7)
Sequence of UniProt Q9QUN7 (Q9QUN7 25-784, chain 1 of 2): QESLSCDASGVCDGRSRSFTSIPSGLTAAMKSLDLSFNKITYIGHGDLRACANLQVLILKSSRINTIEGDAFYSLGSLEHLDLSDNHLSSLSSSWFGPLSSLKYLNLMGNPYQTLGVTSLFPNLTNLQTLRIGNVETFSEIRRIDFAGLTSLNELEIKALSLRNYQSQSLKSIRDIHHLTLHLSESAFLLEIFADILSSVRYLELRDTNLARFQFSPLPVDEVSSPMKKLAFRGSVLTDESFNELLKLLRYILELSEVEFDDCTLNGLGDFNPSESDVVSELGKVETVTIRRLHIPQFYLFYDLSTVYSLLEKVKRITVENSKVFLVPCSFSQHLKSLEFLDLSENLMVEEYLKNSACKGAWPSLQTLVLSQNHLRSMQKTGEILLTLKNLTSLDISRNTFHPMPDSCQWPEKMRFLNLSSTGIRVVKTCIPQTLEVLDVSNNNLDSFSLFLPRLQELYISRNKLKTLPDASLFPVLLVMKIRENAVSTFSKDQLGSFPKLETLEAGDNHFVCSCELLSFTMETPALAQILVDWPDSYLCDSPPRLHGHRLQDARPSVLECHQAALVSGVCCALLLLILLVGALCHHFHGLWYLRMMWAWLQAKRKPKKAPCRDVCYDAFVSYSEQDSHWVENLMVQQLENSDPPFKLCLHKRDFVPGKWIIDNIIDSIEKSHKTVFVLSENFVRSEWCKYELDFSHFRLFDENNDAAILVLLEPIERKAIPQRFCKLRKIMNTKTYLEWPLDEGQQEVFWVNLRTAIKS
Sequence of UniProt Q9QUN7 (Q9EPW9 28-795, chain 2 of 2, further chain): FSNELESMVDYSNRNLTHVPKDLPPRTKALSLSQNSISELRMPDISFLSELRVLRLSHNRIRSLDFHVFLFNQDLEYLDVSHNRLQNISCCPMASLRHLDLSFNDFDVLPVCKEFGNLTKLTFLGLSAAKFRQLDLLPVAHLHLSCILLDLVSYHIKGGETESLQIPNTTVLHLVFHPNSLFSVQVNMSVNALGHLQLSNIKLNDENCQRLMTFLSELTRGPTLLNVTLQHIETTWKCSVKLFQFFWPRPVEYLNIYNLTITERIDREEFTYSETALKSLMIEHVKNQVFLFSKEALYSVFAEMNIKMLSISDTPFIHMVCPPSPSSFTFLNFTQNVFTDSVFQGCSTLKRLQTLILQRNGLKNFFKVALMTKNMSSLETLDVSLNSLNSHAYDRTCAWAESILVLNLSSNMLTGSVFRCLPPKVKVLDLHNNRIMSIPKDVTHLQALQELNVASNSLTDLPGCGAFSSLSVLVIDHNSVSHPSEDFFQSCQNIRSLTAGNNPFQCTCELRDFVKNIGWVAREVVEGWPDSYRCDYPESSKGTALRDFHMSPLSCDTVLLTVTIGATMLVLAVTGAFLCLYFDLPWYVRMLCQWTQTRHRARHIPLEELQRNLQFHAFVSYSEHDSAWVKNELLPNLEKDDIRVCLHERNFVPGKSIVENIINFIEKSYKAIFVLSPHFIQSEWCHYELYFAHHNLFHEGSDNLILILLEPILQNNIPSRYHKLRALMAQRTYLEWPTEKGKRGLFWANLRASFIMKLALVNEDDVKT

With “-fM-BacSp222 (from UniProt A0A0P0C3P7 2-50) (peptide)” the TNF in the medium (ELISA) of P388.D1 cells, 1 µM -fM-BacSp222, 6 h, without antagonist was 257 pg/mL.

For-MAGLLRFLLSKGRALYNWAKSHVGKVWEWLKSGATYEQIKEWIENALGWR [BacSp222 bacteriocin] was tested, and the TNF in the medium (ELISA) of P388.D1 cells, 1 µM BacSp222, 6 h, without antagonist was 252 pg/mL and the TNF in the medium (ELISA) of RAW 264.7 cells, 1 µM BacSp222, 6 h, without antagonist was 976 pg/mL.

Molecule For-MAGLLRFLLSKGRALYNWAK(Suc)SHVGKVWEWLKSGATYEQIKEWIENALGWR [suc-K20-BacSp222] has a TNF in the medium (ELISA) of P388.D1 cells, 1 µM suc-K20-BacSp222, 6 h, without antagonist of 213 pg/mL and a TNF in the medium (ELISA) of RAW 264.7 cells, 1 µM suc-K20-BacSp222, 6 h, without antagonist of 1280 pg/mL.
